doi:10.1101/2025.01.31.636011, “Discovery of a distinct BAM complex in the Bacteroidetes” (bioRxiv, 2025)

B2: BtBamG (Bt4306) (natural protein, UniProt Q89ZS0 18-542, looked up)
chain: CDDNTGGLGLGMFPGNDQNIKGKLSTFDVTTESVKTGDIYAKTNIGYIGKFTDETFGTYQAGFLAQLNCPDGLTFPEPYKEVTDASGNVISATGRMVVDDKDPENKDVTFIKDGNQIIGNIRAVELYLWYDSYFGDSLTACRLSVYELGGNGKETLNLDNAYYTDINPEDFYDSQNILGTKAYTAVDLSVKDSIRNLSTYVPSVHIAFKEDIATRVGGNILTAARKAKNADKEFNSQLFREAFQGIYVKSDYGDGTVLYIDQPQMNVVYKCYATDSITGKKLQKKDGSGKDSTYYSYRVFATTREVIQANQLKNDPERIDALIKEDKNTYLKSPAGIFTEATLPISDIQNELTGDTLNAVKLTFTNYNQTGDKKFGMAIPSTVMLVRKKFQDSFFKDNKLSDGVSSYLTSHTSSTNQYVFSNITKLVNACIAEKEEAKKNAGSSWDETKWLQENPDWNKVVLIPVLVTYDSSNTTTGQANIIRIQHDLKPGYVRLKGGSLGKTNPDYKLKLEVISTDFGLTTKSN
modifications: tri-acylated lipid anchor on the N-terminal cysteine; O-glycosylation (glycan on Ser309)
notes: also called Bt4306/BamG

What was measured:
Conditions in all cases: both partners purified
BtBamG (Bt4306) [1] = biological target: B2; experiment: cryo-EM structure; BtBAM complex co-purified through BtBamAhis from B. theta membranes, in DDM, 8 mg/ml; two 3D classes and a composite model
[2] = biological target: T1, BtBamA (Bt3725) with an N-terminal His7 tag (Bacteroides thetaiotaomicron, UniProt Q8A1E1 20-885); experiment: as above
T1 construct: also called BtBamAhis; BamAhis
T1 sequence (looked up): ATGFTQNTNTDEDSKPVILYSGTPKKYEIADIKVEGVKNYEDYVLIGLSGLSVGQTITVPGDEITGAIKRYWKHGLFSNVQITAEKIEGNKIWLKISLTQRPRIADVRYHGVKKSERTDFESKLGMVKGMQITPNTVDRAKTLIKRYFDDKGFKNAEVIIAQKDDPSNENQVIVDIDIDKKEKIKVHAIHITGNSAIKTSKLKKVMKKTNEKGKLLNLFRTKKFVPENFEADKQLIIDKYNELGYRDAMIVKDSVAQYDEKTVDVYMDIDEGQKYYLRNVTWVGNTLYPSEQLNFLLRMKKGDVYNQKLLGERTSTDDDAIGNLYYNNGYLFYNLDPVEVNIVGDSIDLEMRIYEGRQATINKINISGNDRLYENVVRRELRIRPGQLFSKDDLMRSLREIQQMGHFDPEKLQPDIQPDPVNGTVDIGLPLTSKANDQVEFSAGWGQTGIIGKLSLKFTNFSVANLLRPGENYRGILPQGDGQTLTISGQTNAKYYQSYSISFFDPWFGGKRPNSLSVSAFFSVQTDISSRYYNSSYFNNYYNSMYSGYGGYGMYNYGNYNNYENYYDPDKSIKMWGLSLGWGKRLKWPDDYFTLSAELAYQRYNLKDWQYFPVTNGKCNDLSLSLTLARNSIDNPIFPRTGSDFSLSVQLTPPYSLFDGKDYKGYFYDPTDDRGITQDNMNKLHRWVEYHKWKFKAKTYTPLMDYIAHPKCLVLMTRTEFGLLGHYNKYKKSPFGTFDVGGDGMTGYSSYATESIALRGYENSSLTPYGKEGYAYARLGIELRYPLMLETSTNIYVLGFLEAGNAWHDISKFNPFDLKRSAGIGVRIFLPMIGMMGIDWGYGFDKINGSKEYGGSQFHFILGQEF

PgBamA (PGN_0299) = biological target: T2, PgBamA (PGN_0299) (Porphyromonas gingivalis (endogenous in …, UniProt B2RHH3 20-891)); experiment: cryo-EM structure; PgBAM complex co-purified through C-terminally His-tagged PgBamG from P. gingivalis membranes, in DDM, 4.9 mg/ml
T2 construct: also called P. gingivalis BamA; source: endogenous, P. gingivalis expressing His-tagged BamG, membranes solubilised in DDM
T2 sequence: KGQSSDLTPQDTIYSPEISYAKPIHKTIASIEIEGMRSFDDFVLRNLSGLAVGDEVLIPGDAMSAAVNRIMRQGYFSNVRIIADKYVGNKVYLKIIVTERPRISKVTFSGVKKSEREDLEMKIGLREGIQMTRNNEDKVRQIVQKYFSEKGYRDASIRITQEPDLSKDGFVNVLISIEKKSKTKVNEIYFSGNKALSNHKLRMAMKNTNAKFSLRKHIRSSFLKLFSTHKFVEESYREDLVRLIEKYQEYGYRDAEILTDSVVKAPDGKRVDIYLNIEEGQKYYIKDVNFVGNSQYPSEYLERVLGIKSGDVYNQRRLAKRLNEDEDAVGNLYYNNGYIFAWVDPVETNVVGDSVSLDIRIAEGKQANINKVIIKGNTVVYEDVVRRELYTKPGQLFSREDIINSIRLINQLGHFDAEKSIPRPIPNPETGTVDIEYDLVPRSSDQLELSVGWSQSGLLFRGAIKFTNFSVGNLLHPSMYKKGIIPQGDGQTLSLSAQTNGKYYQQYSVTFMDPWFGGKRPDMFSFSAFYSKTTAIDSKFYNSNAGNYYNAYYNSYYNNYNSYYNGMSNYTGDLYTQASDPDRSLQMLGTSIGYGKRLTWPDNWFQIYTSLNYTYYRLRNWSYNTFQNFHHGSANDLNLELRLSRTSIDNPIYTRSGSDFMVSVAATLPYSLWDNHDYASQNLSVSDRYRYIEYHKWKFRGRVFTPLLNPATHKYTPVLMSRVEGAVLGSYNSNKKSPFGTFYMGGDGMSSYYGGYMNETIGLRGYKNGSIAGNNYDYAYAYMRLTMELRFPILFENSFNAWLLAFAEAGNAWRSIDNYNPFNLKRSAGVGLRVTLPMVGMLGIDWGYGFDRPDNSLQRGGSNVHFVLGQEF

BtBamG (Bt4306) [3] = biological target: B2; experiment: cryo-EM structure

B1: BtBamI (Bt3612) (natural protein, UniProt Q8A1P7 20-196, looked up)
chain: CSETEEVGKYDNWRARNEAFIDSLANVYATASGRGGLERIEMLTAPGNYIYYKEMEPMTDHVVKAGNPKYTDYVKVYYKGTNILGEYFDGNFKGDNPVVDGKDPSEGDSPTTIFQVSGVITGWGEVLQRMEVGDRWKVYIPWDYAYGSSGTTGILGYSALVFDITLLDFANTEAELK
modifications: O-glycosylation (sites not given)
- binding result (BtBamG (Bt4306) [1]): binds

Binder: B2
- binding result [2]: binds

B3: PgBamG (PGN_1735) with a C-terminal 7His-tag (natural protein)
chain: CDDDLSPIGGSIQPPSDPVSARVDTLEFSVKTIPMGDIYNRTNYTLLGDLTDPEYGDLKADYIMQFKSPRNFKFKYPPKDGKIDSVKLSINYDSWAGDSTSIMKVSIYKINKAIPPSYYSTQELASLLDETQIIASQTFKAGNDSAFHRVRIPLPNEIGQKIYDLSVNNPSVFDTQESFYNNVLGGLYVTTTTGTGVVLSVYNTQMAIFYSYKVAADSTATASETFVNTSESYQVNHIKNSQISHLLQENDSLSCVKSPAGVMTQLTISKEQFTDAFTSNLSSSLAWQIGEAQFNISASKPSEGLMLSPPSYLLLLPQDSVRNFFEQEQTELMQPRTAFLSTIYNIKKREYRFSNISRLLMEHIKNNTEKTPEGKPYITKDLVLVLLPVKRQVAGASNSLYTSQLNNFMFPSGVKLQLGKKNKTARIGVYSMTYTDN
modifications: tri-acylated lipid anchor; O-glycosylation, 7 sites
notes: also called His-tagged BamG; source: P. gingivalis expressing C-terminally His-tagged BamG (homologous recombination), membranes solubilised in DDM; not shown: His7, C-terminal, kept
- binding result (PgBamA (PGN_0299)): binds

B4: BtBamF (Bt4367) (natural protein, UniProt Q89ZL0 23-431, looked up)
chain: QNNTNSPYTRYGYGDLSDQSFGNSKAMGGIAFGLRDGAQINPTNPASYTAIDSLTFLFEGGVSLQNMNISGGGLKLNAKNASFDYLAMQFRLAPWMAMSVGLLPYSNVGYTVSDSQTTDNGLAYSRSFTGDGGLHQMYVGAGVKVLKNLSVGVNASYFWGDITRTRGMFYPGTSSYDSYQRKMVTSISDYKLDFGAQYTQALNKKSSLTIGAVYSPKHKLNNDYTSIVIMGASSSSYGTEYKDVLDATFELPNTFGVGFTYNYDKRLTVGADYSLQQWSKTNFGVVTSDENVRQDFNETFTYCDRTKISVGAEYIPNLIGRSYFAHIKYRLGAYYTTPYYKIDGKKASREYGVTAGFGLPVPRSRSILSISGQFVRVKGLETNMVNENIFRVSIGLTFNERWFFKRRVE
modifications: O-glycosylation (glycan on Ser75)
- binding result (BtBamG (Bt4306) [3]): binds
